Laboratory results from the DeepSol protein solubility set.

Assay: soluble on expression in E. coli; label from the status in PepcDB or PDB records
With “MPDHLQPTLFQDAGKTQASDTFQELLASIAARPKYLPDWPESHRALPNEILRSALFNCRNRNLPRMFLKEVEIAVIGDGQVIYRGEELRQDDELVWMHLMHLIKKSPLGECVEFTPYSFIKALGWPIKGQNYDRLRNCLSRMQATALRIQSKRLHSFVSISLIQKFLSRNERNESLTRWQVWVGKEMQLLFDEEFLTRVMWETRRSLPDGIASKLFGYWASHRKPYPVKVETLLKLCGSGMQTKHFKIELKRALDLLKQSGFLEAWELKDELVVVVRRH” the “soluble on expression in E. coli” value was “not soluble”. In the case of “MSVEGLGKDFCGAIIPDNFFPIEKLRNYTQMGLIRDFAKGSAVIMPGEEITSMIFLVEGKIKLDIIFEDGSEKLLYYAGGNSLIGKLYPTGNNIYATAMEPTRTCWFSEKSLRTVFRTDEDMIFEIFKNYLTKVAYYARQVAEMNTYNPTIRILRLFYELCSSQGKRVGDTYEITMPLSQKSIGEITGVHHVTVSRVLACLKRENILDKKKNKIIVYNLGELKHLSEQTSYYSDPNSSSVDKLAAALDHH”, the “soluble on expression in E. coli” value is reported as “soluble”. In the case of “MQCNDVQATEPDIKVSLTRVGVTNLKKLVKLKRKNKRDIVLLPTFEVFVDLPSSQKGIHMSRSPEVIEEVVENILLEKEIYGVEDLSVEIVMKLFEKHEYATRAEVMLYSDYMMEEKSPVTKKDSQEIGKIIARAYGVKDSNGKIDVKKMVGAEVVGITACPCAQNMLKENAVVSLTEKGFSSEDIEKILDSVTIATHNQRGIGTVMIEVPNGYTVGISKIIKIIKDSMSGEVYELLKRSDEAFVVEAAHKNPKFVEDCAREMIKRVVDVFDYLPEDTQVLVRQVNKESIHRHDAFAERNSTIRELRDELKTLTN”, the “soluble on expression in E. coli” value is reported as “not soluble”. In the case of “MLFFSSAMSKHKLTFTKLSDCMKYLDLAATWAEEEWGYIRNKGLEFRKKILSDLKEHTYIGTFNGQPIAMFVLFDKEMSPEFNHGRFKPPVVNELMYVYIDKPYRGLGFGKQIIDEAKQLASDSKSEYIMLDTLKPGLNRFYEKSGAKVIAENQLFSHPTDVLTIKI”, the “soluble on expression in E. coli” value is reported as “not soluble”. With “MSLNSIKDVDLSEITAGKKYWNVERPVEEEVMYFLLIDRFHDGKERISIPSTTGFGNTDQLQARCGGTIQGVIKNLKYISALGFTSIWINPFLQNNPETYHGYSIENFLEVDAQWGTKEDIVELVAQAHKLHIKVFFDIVLNHTGNNWSYVKENPRYNKGKQYAVKAWRYPDRPIPAELRNLNLYGRKGGIVKWEETPETWDGDIFELKDLIQDDSEIGHATLEILIAVYSYWFAVTDCDGFRIDAAKHIPPKWLNTFVDAMKALTASVHKTSFFIFAEIISNQSYISKYHTIDGYLDFDFHFSFVPNMYGEKKRKSAIQSQPRPVDKVPIRFLDNHDQVGQMPKHRIAYRMKEKALCNLLRAFLCMPGIPCIYYGTEQGLKGKGILDGSIRECLFNPDGKEDILNLDSPYARVIKEGIHLRKKLNLYTGDFQSCEIMAAKSHRCIALQVNGLASSKLIVYNLGPHNEVVSIKLSSPLTRTNKLVVYLYSNGDADNDDKTVVNDILHNITMHPYGFKVLELLNHQESVNEGHHHHHH” the “soluble on expression in E. coli” value was “soluble”. In the case of “MASVGIFFGSDTGNTEAIAKMIQKQLGKKLVHVQDIAKSSKEDINNFDLLLLGIPTWYYGEAQCDWDDFFPELEAIDFSTKLVAIFGCGDQEDYAEYFCDAMGTVRDIIQAKGATIVGHWPTEGYEFEASKALVDENHFVGLCIDEDRQPELTEQRVTKWVNQVYEEMCLAELED”, the “soluble on expression in E. coli” value is reported as “not soluble”. For “MPAPQVMPAKVAPLPTSFRGTSVDGSFSVDASGNLLITRDIRNLFDYFLSAVGEEPLQQSLDRLRAYIAAELQEPARGQALALMQQYIDYKKELVLLERDLPRLADLDALRQREAAVKALRARIFSNEAHVAFFADEETYNQFTLERLAIRQDGKLSAEEKAAAIDRLRASLPEDQQESVLPQLQSELQQQTAALQAAGAGPEAIRQMRQQLVGAEATTRLEQLDRQRSAWKGRLDDYFAEKSRIEGNTGLSEADRRAAVERLAEERFSEQERLRLGALEQMRQAEQR”, the “soluble on expression in E. coli” value was “not soluble”. With “MSLSQCQTLLSQINRRIESYENIPVFSFAQKLPLFDSNSTKLKLNSQTNEMMMELLSLVEQNKGKKILIVGHSDNTGSSSMNMTLSEQRALALRDWLIKRSDITVDNFITKGMGASEPVATNHTEAGREQNRRVEVLILPTQDRTRMTEPKPLEGHHHHHH” the “soluble on expression in E. coli” value was “soluble”. In the case of “MGSDKIHHHHHHLDDYDDDIYDMQAGMPFNAALATVVTPSEIPGEAMIESDNDGVAYVVNPDKLTRFETNNPGQRIFYTYINADNPTGDASKKGPFISIDYLQKILTKRMDTLKENEEDIYGHDGINLITPIMGKTHLTLMFQILGFNSNIKHRISLVATEGTVPDANGYMAVELRHNAEGDRQEYPSSGYVSFPLLDVPGYKEGKLQGFKIKMNTINNGEETVTVSYNKSKSTNFPFIQKGISNTKIK”, the “soluble on expression in E. coli” value is reported as “not soluble”. In the case of “MGSDKIHHHHHHMEGGAMMLLEVKNVTKKFGDKVVLKNISFTLEEGESLGILGKSGAGKSVLLHMLRGMDGYEPTEGQIIYHVSYCEKCGYVDVPSKAGTPCKKCGNELKKIEVDFWNDKKYTYNLKRKIAIMLQRTFALYGEKTVLENILEALHQAGYEGKEAIDMALKLIKMVKLEHRITHIARDLSGGEKQRVVLARQIAKEPFIFLADEPTGTLDPQTAKLVHSALKELVIKNKISLILTSHWPEVIAELTEKAIWLDKGEIIMEGTSEEVVNKFMETVKEFKKPETEVEIKEDIIKLENVSKHYCSVERGVIKAVDNVTLNIREREIFGLVGTSGAGKTTLAKIIAGVLPPSKGKYWFRVGDEWVDMTKPGPMGRGRAKRYIGILFQEYALYPHRTILENLTEAIGLELPDEFARMKAVYTLVSVGFSEEEAEEILDKYPHELSVGERHRCALAQVLIKEPRVVILDEPTGTMDPITRNTVAESIHKSRIELEQTYIIVSHDMDFVLNVCDRAGLMRNGKLIKVGKPEEIVALLTEEEKQEMFGQK”, the “soluble on expression in E. coli” value is reported as “not soluble”. For “WLRDVLDSEAFRHTQATLPMALGKDISGQPIVVDMAKMPHLLVAGQTGGGKSVGINTMILSLLFKLTPEQVRFIMIDPKVVELSVYNDIPHLLTPVVTDMKKAANALRWAVGEMERRYLLISHLQVRNIEGYNDKIDQASAMNFPIPDPTWRPADSIGQLPPPLTKLSYIVLIVDEFADLIMSAGKEVEEYIMRIAQKARAVGIHLILATQRPST”, the “soluble on expression in E. coli” value was “not soluble”. For “MASYSEDQCSWRGSGLSQAVKNVEQVWLRCAEGSVEWLYPAGALRLTLSPRLPWSAMGPGESSRSPVSVCVKPDPHWGGAQLYLERDGVLELLVGDETSTTPGPAHVRCFSALPGERPALFLQATPHRDISRRIAAFRYELRGDWTAQPAVNTDPVSSEGACRPCNNTEILMAVCTSDFVVRGNIRSVGTDSNLNAAVIKVSATRVYRQKFALFPESGRLTRSGEIRTPLQCGVRPGAGSFLFTGRVHFGEAWLGCAPRYKDFLKAYEQAKQSLMIPCTLVND”, the “soluble on expression in E. coli” value was “not soluble”. For “AGWQSYVDNLMCDGCCQEAAIVGYCDAKYVWAATAGGVFQSITPIEIDMIVGKDREGFFTNGLTLGAKKCSVIRDSLYVDGDCTMDIRTKSQGGEPTYNVAVGRAGRALVIVMGKEGVHGGTLNKKAYELALYLRRSDV”, the “soluble on expression in E. coli” value was “soluble”. With “MSKFLDRFRYFKQKGETFADGHGQLLNTNRDWEDGYRQRWQHDKIVRSTHGVNCTGSCSWKIYVKNGLVTWETQQTDYPRTRPDLPNHEPRGCPRGASYSWYLYSANRLKYPMMRKRLMKMWREAKALHSDPVEAWASIIEDADKAKSFKQARGRGGFVRSSWQEVNELIAASNVYTIKNYGPDRVAGFSPIPAMSMVSYASGARYLSLIGGTCLSFYDWYCDLPPASPQTWGEQTDVPESADWYNSSYIIAWGSNVPQTRTPDAHFFTEVRYKGTKTVAVTPDYAEIAKLCDLWLAPKQGTDAAMALAMGHVMLREFHLDNPSQYFTDYVRRYTDMPMLVMLEERDGYYAAGRMLRAADLVDALGQENNPEWKTVAFNTNGEMVAPNGSIGFRWGEKGKWNLEQRDGKTGEETELQLSLLGSQDEIAEVGFPYFGGDGTEHFNKVELENVLLHKLPVKRLQLADGSTALVTTVYDLTLANYGLERGLNDVNCATSYDDVKAYTPAWAEQITGVSRSQIIRIAREFADNADKTHGRSMIIVGAGLNHWYHLDMNYRGLINMLIFCGCVGQSGGGWAHYVGQEKLRPQTGWQPLAFALDWQRPARHMNSTSYFYNHSSQWRYETVTAEELLSPMADKSRYTGHLIDFNVRAERMGWLPSAPQLGTNPLTIAGEAEKAGMNPVDYTVKSLKEGSIRFAAEQPENGKNHPRNLFIWRSNLLGSSGKGHEFMLKYLLGTEHGIQGKDLGQQGGVKPEEVDWQDNGLEGKLDLVVTLDFRLSSTCLYSDIILPTATWYEKDDMNTSDMHPFIHPLSAAVDPAWEAKSDWEIYKAIAKKFSEVCVGHLGKETDIVTLPIQHDSAAELAQPLDVKDWKKGECDLIPGKTAPHIMVVERDYPATYERFTSIGPLMEKIGNGGKGIAWNTQSEMDLLRKLNYTKAEGPAKGQPMLNTAIDAAEMILTLAPETNGQVAVKAWAALSEFTGRDHTHLALNKEDEKIRFRDIQAQPRKIISSPTWSGLEDEHVSYNAGYTNVHELIPWRTLSGRQQLYQDHQWMRDFGESLLVYRPPIDTRSVKEVIGQKSNGNQEKALNFLTPHQKWGIHSTYSDNLLMLTLGRGGPVVWLSEADAKDLGIADNDWIEVFNSNGALTARAVVSQRVPAGMTMMYHAQERIVNLPGSEITQQRGGIHNSVTRITPKPTHMIGGYAHLAYGFNYYGTVGSNRDEFVVVRKMKNIDWLDGEGNDQVQESVK” the “soluble on expression in E. coli” value was “soluble”. For “MTTAITPDKKKLVSPKPTKTTSDKSKTKPRRSSKTSKKRKSKKGLFGCCAKKRKTKRSKKSAKRTKRSAPKKAPKKAPMKAPSKPAAKLVPQQAQASLQKPIQSGIVDADATVKTVVPRPPTPIPPTGVKPEPAPRSEPLYQPRSVSSTTPRTSATTGTTEQMVTAPATLPPPSAESKHLPQDPPGDASSPRVQRQYTAEKYSKEDQDDDDQKDLRKSVAYPSHKFFMTQYVKDECRVRRWVYEDSVPLMMESNMKHMLRMASNRIAACQSDKARRCDMMKDLNEMTEILDGNF”, the “soluble on expression in E. coli” value was “not soluble”. In the case of “MKNERIEKLQESWELDTRWKGITRPYSAEDVIRLRGSIDIEHTLARRGAEKLWASLHTEDYINALGALTGNQAMQQVKAGLKAIYLSGWQVAADANLSGHMYPDQSLYPANSVPAVVKRINQTLQRADQIQHMEGSGDTDYFVPIVADAEAGFGGQLNVFELMKGMIEAGASGVHFEDQLSSEKKCGHLGGKVLLPTQTAVRNLISARLAADVMGVPTIIVARTDADAADLITSDIDPVDKAFITGERTPEGFYRTKAGLDQAIARGLAYAPYADLVWCETSEPNLEDAKRFADAIHKEHPGKLLAYNCSPSFNWKQKLDEKTIASFQKEIASYGYKFQFVTLAGFHSLNYGMFELARGYKERGMAAYSELQQAEFAAEKHGYSATRHQREVGTGYFDEVAQVITGGTSSTTALKGSTEEAQFTK”, the “soluble on expression in E. coli” value is reported as “not soluble”. For “MGSDKIHHHHHHMNYTNEVAKMTCVAKGPNHGPAPIPEEGKWVSAKEIKDISGLTHGVGRCAPQQGACKLTLNVKEGIIQEALVETIGCSGMTHSAAMAAEILSGKTILEALNTDLVCDAINTAMRELFLQIVYGRTQTAFSEGGLPVGAGLEDLGKGHRSQVGTMYSSAAKGPRYLEMVEGYVTKTGLDENNEIIGYEFINFGKMMDMIKQGMDANEAMKKATGNYGRFADAVKVIDPREE”, the “soluble on expression in E. coli” value was “not soluble”. For “MGHHHHHHSHMAPGGLFLPYHSLPQPDFLASCPTRHLKLCQCPGILAENPHQFSPTFPPGKGSCQHGALPGQVSLKEAAHTEMSLSGQDLFPSPAHPPLQPFWLPFSLCLSTPFLVADNELRLPKGQICPLHVFVLANRVVLKLCANSVWEHSKGIT”, the “soluble on expression in E. coli” value was “not soluble”. With “GPGSMRNLLGESAVSSLVIEEPTKVAMTTSPTAVLNSSMSTDTDSTAVSPARVKGVSPQTKANGNSNGDGSTAIRGQSNDKQLEAPTEVQYRAVEVMVVDRGTQTTTTVGCQTDPEPSQSPVGGAMPFHRGFCPRCTCCCRGVVRDYPWRNAREEEDRSSRFQEELETIQKSIDMMIARYNLPPPPMPRY” the “soluble on expression in E. coli” value was “not soluble”.
